The results in this text go back to publication PMC4015496 (Genes & Development, 2014).

By stoichiometry N is commonly meant a count of units in the complex or per binding partner.

In data set [1] the target is T1, CTCFwt, full length, GST tag removed (human), P49711.
T1 chain: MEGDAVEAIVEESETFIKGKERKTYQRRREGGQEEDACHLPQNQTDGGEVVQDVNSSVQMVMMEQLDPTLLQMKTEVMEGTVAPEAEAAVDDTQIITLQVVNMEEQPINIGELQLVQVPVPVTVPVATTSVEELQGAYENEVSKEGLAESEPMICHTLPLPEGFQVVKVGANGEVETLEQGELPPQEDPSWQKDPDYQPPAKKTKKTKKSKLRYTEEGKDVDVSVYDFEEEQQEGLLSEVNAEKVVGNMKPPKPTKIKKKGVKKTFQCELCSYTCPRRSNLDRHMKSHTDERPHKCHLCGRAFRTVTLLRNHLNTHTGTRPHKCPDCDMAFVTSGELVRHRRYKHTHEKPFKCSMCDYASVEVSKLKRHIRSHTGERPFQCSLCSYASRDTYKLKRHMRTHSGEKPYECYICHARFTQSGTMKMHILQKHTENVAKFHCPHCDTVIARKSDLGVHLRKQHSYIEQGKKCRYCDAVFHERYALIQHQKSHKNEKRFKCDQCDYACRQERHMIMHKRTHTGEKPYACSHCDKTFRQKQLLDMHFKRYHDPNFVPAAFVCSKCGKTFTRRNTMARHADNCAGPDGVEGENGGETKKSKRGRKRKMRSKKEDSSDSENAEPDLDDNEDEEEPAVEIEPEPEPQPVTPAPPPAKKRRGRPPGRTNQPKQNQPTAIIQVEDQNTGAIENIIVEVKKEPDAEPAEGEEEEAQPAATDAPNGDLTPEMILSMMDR
The data set can be described thus: SEC. The following applies: remark: other sources report otherwise.

Data set [2] concerns the molecule itself. The data set can be described thus: SEC.

B1: CTCFwt, full length, GST tag removed, P49711 1-727 (natural protein)
chain: T1 chain
With B1, in data set [1], the stoichiometry N came out at 3.

B2: RBR fragment of CTCF (purified, used in gel filtration) (domain or fragment, human, UniProt P49711 520-727, looked up)
chain: EKPYACSHCDKTFRQKQLLDMHFKRYHDPNFVPAAFVCSKCGKTFTRRNTMARHADNCAGPDGVEGENGGETKKSKRGRKRKMRSKKEDSSDSENAEPDLDDNEDEEEPAVEIEPEPEPQPVTPAPPPAKKRRGRPPGRTNQPKQNQPTAIIQVEDQNTGAIENIIVEVKKEPDAEPAEGEEEEAQPAATDAPNGDLTPEMILSMMDR
For B2, the binding result in data set [2] was “binds”.
